Biological target: eEF-2 (Homo sapiens, UniProt P13639)
Experiment: kinase inhibition assay

Ki: ~9 µM
B1: eEF-2K 562-725 (protein)
chain: GELEAIVGLGLMYSQLPHHILADVSLKETEENKTKGFDYLLKAAEAGDRQSMILVARAFDSGQNLSPDRCQDWLEALHWYNTALEMTDCDEGGEYDGMQDEPRYMMLAREAEMLFTGGYGLEKDPQRSGDLYTQAAEAAMEAMKGRLANQYYQKAEEAWAQMEE

From paper PMC6599559 (2019)
